T1: huCD98hc ECD Avi-His (human, UniProt P08195 105-529)
T1 construct: biotinylated on the Avi tag where captured on streptavidin; also called Human CD98-AVI-His; Human CD98hc-AVI-His
T1 sequence: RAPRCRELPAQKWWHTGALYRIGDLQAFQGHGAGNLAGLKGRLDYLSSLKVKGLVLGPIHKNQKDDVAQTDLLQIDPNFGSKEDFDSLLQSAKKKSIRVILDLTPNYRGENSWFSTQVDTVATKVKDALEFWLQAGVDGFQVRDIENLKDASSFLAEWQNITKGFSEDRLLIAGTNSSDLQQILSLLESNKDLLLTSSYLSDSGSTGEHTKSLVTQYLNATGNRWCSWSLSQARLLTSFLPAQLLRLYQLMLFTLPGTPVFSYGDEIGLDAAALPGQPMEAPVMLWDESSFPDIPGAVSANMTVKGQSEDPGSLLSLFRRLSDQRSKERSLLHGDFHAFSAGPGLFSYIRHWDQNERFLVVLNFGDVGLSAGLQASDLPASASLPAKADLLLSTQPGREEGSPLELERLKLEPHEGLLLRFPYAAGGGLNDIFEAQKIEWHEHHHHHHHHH

T2: Cyno CD98hc ECD Avi-His (cynomolgus macaque, UniProt P08195 105-529 (human entry))
T2 construct: biotinylated on the Avi tag where captured on streptavidin; also called Cyno CD98-AVI-His; Cyno CD98hc-AVI-His
T2 chain: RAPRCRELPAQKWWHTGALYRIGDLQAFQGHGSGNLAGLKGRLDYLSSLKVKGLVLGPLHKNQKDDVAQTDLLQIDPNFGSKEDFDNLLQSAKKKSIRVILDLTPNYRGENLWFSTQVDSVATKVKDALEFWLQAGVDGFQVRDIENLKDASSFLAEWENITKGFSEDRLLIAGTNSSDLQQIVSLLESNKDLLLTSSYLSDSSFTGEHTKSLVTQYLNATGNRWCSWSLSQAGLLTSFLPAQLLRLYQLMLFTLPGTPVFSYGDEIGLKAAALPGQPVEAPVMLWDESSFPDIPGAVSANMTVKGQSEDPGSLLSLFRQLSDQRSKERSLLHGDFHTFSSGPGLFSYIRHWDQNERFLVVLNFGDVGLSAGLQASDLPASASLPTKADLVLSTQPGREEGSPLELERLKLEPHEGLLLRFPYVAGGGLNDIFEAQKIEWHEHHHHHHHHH

T3: muCD98hc ECD Avi-His (mouse, UniProt P10852 100-526)
T3 construct: biotinylated on the Avi tag where captured on streptavidin; also called Mouse CD98-AVI-His; Mouse CD98hc-AVI-His
T3 sequence: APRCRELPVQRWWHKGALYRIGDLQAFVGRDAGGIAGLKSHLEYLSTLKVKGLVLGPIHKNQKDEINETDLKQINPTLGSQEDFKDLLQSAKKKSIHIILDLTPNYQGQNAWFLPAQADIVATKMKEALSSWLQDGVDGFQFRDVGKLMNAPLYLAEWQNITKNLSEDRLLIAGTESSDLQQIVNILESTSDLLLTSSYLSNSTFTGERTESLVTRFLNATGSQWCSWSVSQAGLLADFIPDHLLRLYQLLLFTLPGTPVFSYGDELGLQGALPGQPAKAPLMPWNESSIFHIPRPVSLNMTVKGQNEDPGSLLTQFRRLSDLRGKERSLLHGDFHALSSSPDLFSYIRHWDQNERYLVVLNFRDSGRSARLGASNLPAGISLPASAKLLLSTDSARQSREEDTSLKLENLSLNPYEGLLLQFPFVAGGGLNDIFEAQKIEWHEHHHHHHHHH

B1: CD98HC.04.063 (antibody, V domains shown)
VH: EVKLEESGGGLVQPGGSMILSCVASGFTFSNSWMNWVRQSPEKGLEWVAEIRLRSNNYATHYAESVKGRFTISRDDSKSTVYLQMNNLRAEDTGIYYCSRGDPGAYWGQGTLVTVSA
VL: DIQMTQSSSYLSVSLGNRVTITCKASDHIKNWLAWFQQKPGNAPRLLISGATILETGVPSRFSGSGSGKDYTLSITSLQTEDVATYYCQQYWSTPYTFGGGTKLEIK
notes: hybridoma IgG
B2: CD98HC.03.004 (antibody, V domains shown)
VH: DVQLQESGPGLVKPSQSLSLTCTVTGYSITNNYAWNWIRRFPGNKLEWMAYISYSGYTSYNPSLKSRISITRDTSKNQFFLQLNSVTTEDTATYYCTGYFYYYGGGSFDYWGQGTTLTVSS
VL: QAVVTQESALTTSPGETVTLTCRSSTGAVTTSNFANWVQEKPDHLFTGLIRGSNNRAPGVPARFSGSLIGDKAALTITGARTEDEAIYFCALWYSDHWVFGGGTKLTVL
notes: hybridoma IgG
B3: CD98HC.03.010 (antibody, V domains shown)
VH: EVQLQQSGTELVKPGASVKLSCTASGLDIKDTYLHWVKQRPEQGLEWIGKIDPANGNTKYNPKFQGKATITADTSSNTAYLQLSSLTSEDTAVHYCTTPYYSGSSYGDYWGQGTTLTVSS
VL: QIVLTQSPAIMSASPGEKVTLTCSASSSVSSSYLYWYQQKPGSSPKLWIYSTSNLASGVPARFSGSGSGTSYSLTISSMEAEDAASYFCHQWSRYPLTFGAGTKLELK
notes: hybridoma IgG
B4: CD98HC.04.058 (antibody, V domains shown)
VH: QVQLQQSGAELVRPGVSVKISCKASGYTFTDHTMHWVKQSHARSLEWIGVISTYFGDASYNPKFKGKATMTVDKSSNTAYMELARLTSEDSAIYYCARVGGRLRLGYYFDYWGQGTTLTVSS
VL: NIMMTQSPSSLAVSAGEKVTMNCKSSQTVLYSSNQKNYLAWYQQKPGQSPKLLIYWASTRESGVPDRFTGSGSGTDFTLTISSVQVEDLAVYYCHQYLSSYTFGGGTKLEIK
notes: hybridoma IgG
B5: CD98HC.04.062 (antibody, V domains shown)
VH: EVQLVESGGDLVKPGGSLKLSCTASRFAFSTYDMSWVRQTPEKRLEWVAYISSGGGSTYFPDTVKGRFTISRDNAKNTLYLQMSSLKSEDTAMYYCARQDGHYPWFPYWGQGTLVTVSA
VL: DIVMSQSPSSLAVSVGEKVTMSCKSSQSLLYSGNQKTYLAWYQQKPGQSPKPLIYWASTRESGIPDRFTGSGSGTDFTLTISSVKAEDLAVYYCQQYYSYPPTFGAGTKLELK
notes: hybridoma IgG
B6: CD98HC.04.064 (antibody, V domains shown)
VH: QVQLQQPGAELVRPGASVKLSCKASGYTFTSYWMNWVRQRPGQGLEWIGLIDPSDSETHYNQMFKDRATLTVDKSSSTAYMQLSSLTSADPAVYYCARASYGKGYFDYWGQGTTLTVSS
VL: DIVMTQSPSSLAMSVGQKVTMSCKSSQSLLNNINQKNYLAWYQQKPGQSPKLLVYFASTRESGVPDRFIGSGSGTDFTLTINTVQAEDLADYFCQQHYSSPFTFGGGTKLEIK
notes: hybridoma IgG

The target in one assay is T1, huCD98hc ECD Avi-His. In words: ELISA, hybridoma supernatant. An outline of the steps: (§1)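 Binding of hybridoma supernatants (30 min, room temperature) was read as 450 nm absorbance after TMB development and sulfuric acid quench. Antigens, Avi-His-tagged CD98hc from human, cyno or mouse plus human TfR, were captured at 1 μg/ml onto streptavidin-coated wells for 1 h.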
B1: the OD450 amounted to 1.66.

In turn, B2 displayed an OD450 of 1.49.

On to B3, for which the OD450 was 1.

Regarding B4, the OD450 was determined as 1.34.

Consider B5, for which the OD450 was found to be 1.61.

For the molecule B6, the OD450 was 1.7.

A further assay addresses T2, Cyno CD98hc ECD Avi-His. In words: ELISA, hybridoma supernatant. In a few lines: as §1
B1 displayed an OD450 of 1.91.

B2: the OD450 was found to be 1.4.

For the molecule B3, the OD450 was 1.77.

As for B4, the OD450 was 1.73.

On to B5, for which the OD450 stood at 1.63.

In turn, B6 came in with an OD450 of 1.76.

A further assay concerns the target T3, muCD98hc ECD Avi-His. The assay is described as follows: ELISA, hybridoma supernatant. An outline of the steps: as §1
In turn, B1 returned an OD450 of 0.0738.

On to B2, for which the OD450 was 0.0938.

Molecule B3 gave an OD450 of 0.0625.

Regarding B4, the OD450 turned out to be 0.121.

Molecule B5 returned an OD450 of 0.0607.

Molecule B6 had an OD450 of 0.073.

The values are drawn from patent US20250270341A1 (Alector, published 2025).
